# Measured values from patent US20250179187A1, “ANTI PD-L2 ANTIBODY” (REJUVERON SENESCENCE THERAPEUTICS AG, priority 2022, published 2025).
# T1: human PD-L2 antigen (Homo sapiens, UniProt Q9BQ51)
# T1 sequence (Q9BQ51 20-273): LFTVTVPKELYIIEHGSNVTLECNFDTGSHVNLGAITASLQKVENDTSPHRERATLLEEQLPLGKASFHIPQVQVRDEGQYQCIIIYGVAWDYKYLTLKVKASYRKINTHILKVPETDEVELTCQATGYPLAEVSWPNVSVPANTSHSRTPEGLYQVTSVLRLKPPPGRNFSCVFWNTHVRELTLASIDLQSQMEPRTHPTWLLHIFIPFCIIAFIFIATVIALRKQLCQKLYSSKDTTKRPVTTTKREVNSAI
# Biological target: T1, human PD-L2 antigen
# Assay: Single cycle kinetics on Biacore 8K, binding to human PD-L2 antigen
# Conditions: Table 2, cell culture supernatants
# Text: Table 2: Single cycle kinetic parameters of chimeric (VH0/VK0) and humanized variants (tested as cell culture supernatants) binding to human PD-L2 antigen as determined using the Biacore 8K. As used herein, the term “KD” is intended to refer to the dissociation equilibrium constant of a particular antibody-antigen interaction, ka is the binding rate constant and kd is the dissociation rate constant. The binding affinity of antibodies of the disclosed invention may be measured or determined by standard antibody-antigen assays. The relative KD was calculated by dividing the KD of the humanized variant by that of the VH0/VK0 assayed in the same experiment.
row,Molecule,kd
1,"VH1/VK1: humanized anti-PD-L2 variant; SEQ ID NO: 2/SEQ ID NO: 10 (antibody, V domains shown) VH: QVQLVQSGAELKKPGSSVKVSCKASGYAFSNYFIEWVKQPPGKGLEWIGLNIPGSGGSNYAEKFKGRATITADKSTSTAYMELSSLTSEDSAVYFCARRRLPPDWYFDVWGQGTTVTVSS VL: DVVMTQSPLSLPVTLGQPASISCRSSQSLVHSDGNTYLHWYQQKPGQPPKLLIYKVSNRFSGVPDRFSGSGSGTDFTLKISRVEAEDVGVYFCSQSTHVPWTFGGGTKVEIK",0.00011 s⁻¹
2,"VH2/VK1: humanized anti-PD-L2 variant; SEQ ID NO: 3/SEQ ID NO: 10 (antibody, V domains shown) VH: QVQLVQSGAEVKKPGSSVKVSCKASGYAFSNYFIEWVKQPPGKGLEWIGLNIPGSGGSNYAEKFKGRATITADKSTSTAYMELSSLRSEDSAVYFCARRRLPPDWYFDVWGQGTTVTVSS VL: DVVMTQSPLSLPVTLGQPASISCRSSQSLVHSDGNTYLHWYQQKPGQPPKLLIYKVSNRFSGVPDRFSGSGSGTDFTLKISRVEAEDVGVYFCSQSTHVPWTFGGGTKVEIK",0.000119 s⁻¹
3,"VH2/VK2: humanized anti-PD-L2 variant; SEQ ID NO: 3/SEQ ID NO: 11 (antibody, V domains shown) VH: QVQLVQSGAEVKKPGSSVKVSCKASGYAFSNYFIEWVKQPPGKGLEWIGLNIPGSGGSNYAEKFKGRATITADKSTSTAYMELSSLRSEDSAVYFCARRRLPPDWYFDVWGQGTTVTVSS VL: DVVMTQSPLSLPVTLGQPASISCRSSQSLVHSDGNTYLHWYQQKPGQPPKLLIYKVSNRFSGVPDRFSGSGSGTDFTLKISRVEAEDVGVYYCSQSTHVPWTFGGGTKVEIK",0.000122 s⁻¹
4,"VH2/VK3: humanized anti-PD-L2 variant; SEQ ID NO: 3/SEQ ID NO: 12 (antibody, V domains shown) VH: QVQLVQSGAEVKKPGSSVKVSCKASGYAFSNYFIEWVKQPPGKGLEWIGLNIPGSGGSNYAEKFKGRATITADKSTSTAYMELSSLRSEDSAVYFCARRRLPPDWYFDVWGQGTTVTVSS VL: DVVMTQSPLSLPVTLGQPASISCRSSQSLVHSGGNTYLHWYQQKPGQPPKLLIYKVSNRFSGVPDRFSGSGSGTDFTLKISRVEAEDVGVYFCSQSTHVPWTFGGGTKVEIK",0.000414 s⁻¹
5,"VH1/VK2: humanized anti-PD-L2 variant; SEQ ID NO: 2/SEQ ID NO: 11 (antibody, V domains shown) VH: QVQLVQSGAELKKPGSSVKVSCKASGYAFSNYFIEWVKQPPGKGLEWIGLNIPGSGGSNYAEKFKGRATITADKSTSTAYMELSSLTSEDSAVYFCARRRLPPDWYFDVWGQGTTVTVSS VL: DVVMTQSPLSLPVTLGQPASISCRSSQSLVHSDGNTYLHWYQQKPGQPPKLLIYKVSNRFSGVPDRFSGSGSGTDFTLKISRVEAEDVGVYYCSQSTHVPWTFGGGTKVEIK",0.000116 s⁻¹
6,"VH3/VK2: humanized anti-PD-L2 variant; SEQ ID NO: 4/SEQ ID NO: 11 (antibody, V domains shown) VH: QVQLVQSGAEVKKPGSSVKVSCKASGYAFSNYFIEWVKQPPGKGLEWIGLNIPGSGGSNYAEKFKGRVTITADKSTSTAYMELSSLRSEDSAVYFCARRRLPPDWYFDVWGQGTTVTVSS VL: DVVMTQSPLSLPVTLGQPASISCRSSQSLVHSDGNTYLHWYQQKPGQPPKLLIYKVSNRFSGVPDRFSGSGSGTDFTLKISRVEAEDVGVYYCSQSTHVPWTFGGGTKVEIK",0.000132 s⁻¹
7,"VH1/VK3: humanized anti-PD-L2 variant; SEQ ID NO: 2/SEQ ID NO: 12 (antibody, V domains shown) VH: QVQLVQSGAELKKPGSSVKVSCKASGYAFSNYFIEWVKQPPGKGLEWIGLNIPGSGGSNYAEKFKGRATITADKSTSTAYMELSSLTSEDSAVYFCARRRLPPDWYFDVWGQGTTVTVSS VL: DVVMTQSPLSLPVTLGQPASISCRSSQSLVHSGGNTYLHWYQQKPGQPPKLLIYKVSNRFSGVPDRFSGSGSGTDFTLKISRVEAEDVGVYFCSQSTHVPWTFGGGTKVEIK",0.000365 s⁻¹
8,"VH0/VK1: anti-PD-L2 variant on hIgG1; SEQ ID NO: 1/SEQ ID NO: 10 (antibody, V domains shown, human IgG1 constant regions) VH: QVQLQQSGAELVRPGTSVKVSCKASGYAFSNYFIEWVKQRPGQGLEWIGLNIPGSGGSNYAEKFKGKATLTADKSSSTAYMQLSSLTSEDSAVYFCARRRLPPDWYFDVWGTGTTVTVSS VL: DVVMTQSPLSLPVTLGQPASISCRSSQSLVHSDGNTYLHWYQQKPGQPPKLLIYKVSNRFSGVPDRFSGSGSGTDFTLKISRVEAEDVGVYFCSQSTHVPWTFGGGTKVEIK",9.88e-05 s⁻¹
9,"VH3/VK1: humanized anti-PD-L2 variant; SEQ ID NO: 4/SEQ ID NO: 10 (antibody, V domains shown) VH: QVQLVQSGAEVKKPGSSVKVSCKASGYAFSNYFIEWVKQPPGKGLEWIGLNIPGSGGSNYAEKFKGRVTITADKSTSTAYMELSSLRSEDSAVYFCARRRLPPDWYFDVWGQGTTVTVSS VL: DVVMTQSPLSLPVTLGQPASISCRSSQSLVHSDGNTYLHWYQQKPGQPPKLLIYKVSNRFSGVPDRFSGSGSGTDFTLKISRVEAEDVGVYFCSQSTHVPWTFGGGTKVEIK",0.000128 s⁻¹

# Continued, values first:
row,kd,Molecule
1,0.000388 s⁻¹,"VH8/VK3: humanized anti-PD-L2 variant; SEQ ID NO: 8/SEQ ID NO: 12 (antibody, V domains shown) VH: QVQLVQSGAEVKKPGSSVKVSCKASGYAFSNYFIEWVKQPPGKGLEWIGLNIPGSGGSNYAEKFKGRATITADKSTSTAYMELSSLRSEDTAVYYCARRRLPPDWYFDVWGQGTTVTVSS VL: DVVMTQSPLSLPVTLGQPASISCRSSQSLVHSGGNTYLHWYQQKPGQPPKLLIYKVSNRFSGVPDRFSGSGSGTDFTLKISRVEAEDVGVYFCSQSTHVPWTFGGGTKVEIK"
2,0.00012 s⁻¹,"VH8/VK1: humanized anti-PD-L2 variant; SEQ ID NO: 8/SEQ ID NO: 10 (antibody, V domains shown) VH: QVQLVQSGAEVKKPGSSVKVSCKASGYAFSNYFIEWVKQPPGKGLEWIGLNIPGSGGSNYAEKFKGRATITADKSTSTAYMELSSLRSEDTAVYYCARRRLPPDWYFDVWGQGTTVTVSS VL: DVVMTQSPLSLPVTLGQPASISCRSSQSLVHSDGNTYLHWYQQKPGQPPKLLIYKVSNRFSGVPDRFSGSGSGTDFTLKISRVEAEDVGVYFCSQSTHVPWTFGGGTKVEIK"
3,0.000125 s⁻¹,"VH4/VK1: humanized anti-PD-L2 variant; SEQ ID NO: 5/SEQ ID NO: 10 (antibody, V domains shown) VH: QVQLVQSGAEVKKPGSSVKVSCKASGYAFSNYFIEWVKQPPGKGLEWIGLNIPGSGGSNYAEKFKGRVTITADKSTSTAYMELSSLRSEDTAVYYCARRRLPPDWYFDVWGQGTTVTVSS VL: DVVMTQSPLSLPVTLGQPASISCRSSQSLVHSDGNTYLHWYQQKPGQPPKLLIYKVSNRFSGVPDRFSGSGSGTDFTLKISRVEAEDVGVYFCSQSTHVPWTFGGGTKVEIK"
4,0.000466 s⁻¹,"VH4/VK3: humanized anti-PD-L2 variant; SEQ ID NO: 5/SEQ ID NO: 12 (antibody, V domains shown) VH: QVQLVQSGAEVKKPGSSVKVSCKASGYAFSNYFIEWVKQPPGKGLEWIGLNIPGSGGSNYAEKFKGRVTITADKSTSTAYMELSSLRSEDTAVYYCARRRLPPDWYFDVWGQGTTVTVSS VL: DVVMTQSPLSLPVTLGQPASISCRSSQSLVHSGGNTYLHWYQQKPGQPPKLLIYKVSNRFSGVPDRFSGSGSGTDFTLKISRVEAEDVGVYFCSQSTHVPWTFGGGTKVEIK"
5,0.000113 s⁻¹,"VH7/VK1: humanized anti-PD-L2 variant; SEQ ID NO: 7/SEQ ID NO: 10 (antibody, V domains shown) VH: QVQLVQSGAELKKPGSSVKVSCKASGYAFSNYFIEWVKQPPGKGLEWIGLNIPGSGGSNYAEKFKGRATITADKSTSTAYMELSSLRSEDTAVYYCARRRLPPDWYFDVWGQGTTVTVSS VL: DVVMTQSPLSLPVTLGQPASISCRSSQSLVHSDGNTYLHWYQQKPGQPPKLLIYKVSNRFSGVPDRFSGSGSGTDFTLKISRVEAEDVGVYFCSQSTHVPWTFGGGTKVEIK"
6,0.000344 s⁻¹,"VH7/VK3: humanized anti-PD-L2 variant; SEQ ID NO: 7/SEQ ID NO: 12 (antibody, V domains shown) VH: QVQLVQSGAELKKPGSSVKVSCKASGYAFSNYFIEWVKQPPGKGLEWIGLNIPGSGGSNYAEKFKGRATITADKSTSTAYMELSSLRSEDTAVYYCARRRLPPDWYFDVWGQGTTVTVSS VL: DVVMTQSPLSLPVTLGQPASISCRSSQSLVHSGGNTYLHWYQQKPGQPPKLLIYKVSNRFSGVPDRFSGSGSGTDFTLKISRVEAEDVGVYFCSQSTHVPWTFGGGTKVEIK"
7,0.000497 s⁻¹,"VH3/VK3: humanized anti-PD-L2 variant; SEQ ID NO: 4/SEQ ID NO: 12 (antibody, V domains shown) VH: QVQLVQSGAEVKKPGSSVKVSCKASGYAFSNYFIEWVKQPPGKGLEWIGLNIPGSGGSNYAEKFKGRVTITADKSTSTAYMELSSLRSEDSAVYFCARRRLPPDWYFDVWGQGTTVTVSS VL: DVVMTQSPLSLPVTLGQPASISCRSSQSLVHSGGNTYLHWYQQKPGQPPKLLIYKVSNRFSGVPDRFSGSGSGTDFTLKISRVEAEDVGVYFCSQSTHVPWTFGGGTKVEIK"
